Molecular target: Bacillus anthracis protective antigen (PA) (Bacillus anthracis) (UniProt P13423)
Sequence (P13423 30-764 limits assumed): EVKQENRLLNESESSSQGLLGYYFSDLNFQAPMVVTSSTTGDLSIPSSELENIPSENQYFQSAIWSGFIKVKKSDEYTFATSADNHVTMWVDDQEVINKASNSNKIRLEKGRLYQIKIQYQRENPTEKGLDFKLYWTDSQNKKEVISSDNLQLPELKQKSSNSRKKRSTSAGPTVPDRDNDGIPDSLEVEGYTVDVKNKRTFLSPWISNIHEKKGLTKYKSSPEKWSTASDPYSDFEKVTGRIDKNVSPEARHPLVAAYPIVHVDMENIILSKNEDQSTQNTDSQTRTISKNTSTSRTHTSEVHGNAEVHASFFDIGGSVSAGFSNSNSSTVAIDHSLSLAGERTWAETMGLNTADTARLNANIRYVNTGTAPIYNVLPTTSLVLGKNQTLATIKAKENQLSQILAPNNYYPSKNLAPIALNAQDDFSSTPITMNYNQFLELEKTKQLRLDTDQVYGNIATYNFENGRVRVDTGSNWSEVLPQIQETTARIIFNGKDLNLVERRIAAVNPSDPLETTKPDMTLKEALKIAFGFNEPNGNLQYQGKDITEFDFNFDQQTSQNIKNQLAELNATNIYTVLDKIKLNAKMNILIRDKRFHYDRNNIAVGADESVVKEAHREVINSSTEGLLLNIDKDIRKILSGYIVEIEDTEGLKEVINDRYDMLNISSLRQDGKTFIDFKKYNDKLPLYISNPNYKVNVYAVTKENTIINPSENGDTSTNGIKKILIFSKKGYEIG

Sequence of 26-10 scFv-g3p fusion (pAK200) (P69168 268-424): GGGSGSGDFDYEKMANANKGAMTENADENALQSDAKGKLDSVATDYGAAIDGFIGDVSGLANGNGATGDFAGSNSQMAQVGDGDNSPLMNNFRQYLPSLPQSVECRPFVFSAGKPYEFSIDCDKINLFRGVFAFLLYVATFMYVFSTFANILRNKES

“26-10 scFv-g3p fusion (pAK200) (from UniProt P69168 268-424)” gave a M (mean fluorescence) of 7.25.

From US20060029947A1
